Results: publication PMC8850660 (2022)

How the values were obtained:
[1] = target: T1, unphosphorylated beta subunit of the insulin receptor (IRβ), recombinant (UniProt P06213 763-1382); assay: SPR; in the presence of C646 (0-100 nM)
[2] = target: T1, unphosphorylated beta subunit of the …; assay: SPR; in the presence of C646 (0-100 nM); remark: listed apart in the source

T1 sequence (P06213 763-1382): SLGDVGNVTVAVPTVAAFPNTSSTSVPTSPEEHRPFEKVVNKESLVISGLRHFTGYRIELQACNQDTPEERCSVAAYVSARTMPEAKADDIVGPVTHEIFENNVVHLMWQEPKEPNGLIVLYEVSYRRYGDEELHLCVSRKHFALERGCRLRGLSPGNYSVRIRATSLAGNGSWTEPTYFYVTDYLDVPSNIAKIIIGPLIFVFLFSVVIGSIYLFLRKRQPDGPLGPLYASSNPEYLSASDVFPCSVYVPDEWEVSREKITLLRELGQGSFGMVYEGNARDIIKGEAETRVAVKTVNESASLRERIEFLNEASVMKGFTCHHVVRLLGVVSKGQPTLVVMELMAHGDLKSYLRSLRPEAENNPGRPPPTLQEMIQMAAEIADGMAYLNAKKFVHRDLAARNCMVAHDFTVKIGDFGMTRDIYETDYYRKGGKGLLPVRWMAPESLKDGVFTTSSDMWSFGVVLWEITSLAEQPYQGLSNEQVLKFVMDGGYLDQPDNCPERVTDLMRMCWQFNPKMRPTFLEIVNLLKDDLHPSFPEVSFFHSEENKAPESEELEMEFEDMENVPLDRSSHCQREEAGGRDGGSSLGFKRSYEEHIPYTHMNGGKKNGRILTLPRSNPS

| Binder | Kd [1] [pM] | koff [2] [s⁻¹] |
| --- | --- | --- |
| purified IRS2 protein (insulin receptor substrate 2) (natural protein) MASAPLPGPPASAGGDGPNLNNNNNNNNHSVRKCGYLRKQKHGHKRFFVLRGPGTGGDEASAAGGSPPQPPRLEYYESEKKWRSKAGAPKRVIALDCCLNINKRADAKHKYLIALYTKDEYFAVAAENEQEQEGWYRALTDLVSEGRSGEGGSGTTGGSCSASLPGVLGGSAGAAGCDDNYGLVTPATAVYREVWQVNLKPKGLGQSKNLTGVYRLCLSARTIGFVKLNCEQPSVTLQLMNIRRCGHSDSFFFIEVGRSAVTGPGELWMQADDSVVAQNIHETILEAMKALKELFEFRPRSKSQSSGSSATHPISVPGARRHHHLVNLPPSQTGLVRRSRTDSLAATPPAAKCTSCRVRTASEGDGGAAGGAGTAGGRPMSVAGSPLSPGPVRAPLSRSHTLSAGCGGRPSKVTLAPAGGALQHSRSMSMPVAHSPPAATSPGSLSSSSGHGSGSYPLPPGSHPHLPHPLHHPQGQRPSSGSASASGSPSDPGFMSLDEYGSSPGDLRAFSSHRSNTPESIAETPPARDGSGGELYGYMSMDRPLSHCGRPYRRVSGDGAQDLDRGLRKRTYSLTTPARQRQVPQPSSASLDEYTLMRATFSGSSGRLCPSFPASSPKVAYNPYPEDYGDIEIGSHKSSSSNLGADDGYMPMTPGAALRSGGPNSCKSDDYMPMSPTSVSAPKQILQPRLAAALPPSGAAVPAPPSGVGRTFPVNGGGYKASSPAESSPEDSGYMRMWCGSKLSMENPDPKLLPNGDYLNMSPSEAGTAGTPPDFSAALRGGSEGLKGIPGHCYSSLPRSYKAPCSCSGDNDQYVLMSSPVGRILEEERLEPQATPGAGTFGAAGGSHTQPHHSAVPSSMRPSAIGGRPEGFLGQRCRAVRPTRLSLEGLQTLPSMQEYPLPTEPKSPGEYINIDFGEAGTRLSPPAPPLLASAASSSSLLSASSPASSLGSGTPGTSSDSRQRSPLSDYMNLDFSSPKSPKPSTRSGDTVGSMDGLLSPEASSPYPPLPPRPSTSPSSLQQPLPPAPGDLYRLPPASAATSQGPTAGSSMSSEPGDNGDYTEMAFGVAATPPQPIVAPPKPEGARVASPTSGLKRLSLMDQVSGVEAFLQVSQPPDPHRGAKVIRADPQGGRRRHSSETFSSTTTVTPVSPSFAHNSKRHNSASVENVSLRKSSEGSSTLGGGDEPPTSPGQAQPLVAVPPVPQARPWNPGQPGALIGCPGGSSSPMRRETSVGFQNGLNYIAIDVRGEQGSLAQSQPQPGDKNSWSRTRSLGGLLGTVGGSGASGVCGGPGTGALPSASTYASIDFLSHHLKEATVVKE | 7.6 | 1.5e-06 |
| purified IRS1 protein (insulin receptor substrate 1) (natural protein) MASPPDTDGFSDVRKVGYLRKPKSMHKRFFVLRAASEAGGPARLEYYENEKKWRHKSSAPKRSIPLESCFNINKRADSKNKHLVALYTRDEHFAIAADSEAEQDSWYQALLQLHNRAKAHHDGAGGGCGGSCSGSSGVGEAGEDLSYDTGPGPAFKEVWQVILKPKGLGQTKNLIGIYRLCLTSKTISFVKLNSEAAAVVLQLMNIRRCGHSENFFFIEVGRSAVTGPGEFWMQVDDSVVAQNMHETILEAMRAMSDEFRPRSKSQSSSSCSNPISVPLRRHHLNNPPPSQVGLTRRSRTESITATSPASMVGGKPGSFRVRASSDGEGTMSRPASVDGSPVSPSTNRTHAHRHRGSSRLHPPLNHSRSIPMPSSRCSPSATSPVSLSSSSTSGHGSTSDCLFPRRSSASVSGSPSDGGFISSDEYGSSPCDFRSSFRSVTPDSLGHTPPARGEEELSNYICMGGKGASTLAAPNGHYILSRGGNGHRYIPGANLGTSPALPGDEAAGAADLDNRFRKRTHSAGTSPTISHQKTPSQSSVASIEEYTEMMPAAYPPGGGSGGRLPGYRHSAFVPTHSYPEEGLEMHHLERRGGHHRPDTSNLHTDDGYMPMSPGVAPVPSNRKGNGDYMPMSPKSVSAPQQIINPIRRHPQRVDPNGYMMMSPSGSCSPDIGGGSSSSSSISAAPSGSSYGKPWTNGVGGHHTHALPHAKPPVESGGGKLLPCTGDYMNMSPVGDSNTSSPSECYYGPEDPQHKPVLSYYSLPRSFKHTQRPGEPEEGARHQHLRLSSSSGRLRYTATAEDSSSSTSSDSLGGGYCGARPESSLTHPHHHVLQPHLPRKVDTAAQTNSRLARPTRLSLGDPKASTLPRVREQQQQQQSSLHPPEPKSPGEYVNIEFGSGQPGYLAGPATSRSSPSVRCPPQLHPAPREETGSEEYMNMDLGPGRRATWQESGGVELGRIGPAPPGSATVCRPTRSVPNSRGDYMTMQIGCPRQSYVDTSPVAPVSYADMRTGIAAEKASLPRPTGAAPPPSSTASSSASVTPQGATAEQATHSSLLGGPQGPGGMSAFTRVNLSPNHNQSAKVIRADTQGCRRRHSSETFSAPTRAGNTVPFGAGAAVGGSGGGGGGGSEDVKRHSSASFENVWLRPGDLGGVSKESAPVCGAAGGLEKSLNYIDLDLAKEHSQDCPSQQQSLPPPPPHQPLGSNEGNSPRRSSEDLSNYASISFQKQPEDRQ | 0.286 | 3.92e-08 |
